koff data for 5 molecules are collected here from PMC9411592 (2022).

Assay [1] deals with L-TGF-β1 C4S/R249A (the 'WT' of the SPR assay) (human). Put plainly: SPR.
Assay [2] has the same target. Put plainly: SPR. The source holds these as a separate data set. On the technique in general: Surface plasmon resonance follows binding to a sensor surface in real time, without labels.

Read-outs that look alike come from different tables or passages of the source.

What is called koff is the first-order rate constant of dissociation. Lower therefore signals a long-lived complex.

Chain of L-TGF-β1 C4S/R249A (the 'WT' of the SPR assay) (human) (chain, as listed by the source R249A): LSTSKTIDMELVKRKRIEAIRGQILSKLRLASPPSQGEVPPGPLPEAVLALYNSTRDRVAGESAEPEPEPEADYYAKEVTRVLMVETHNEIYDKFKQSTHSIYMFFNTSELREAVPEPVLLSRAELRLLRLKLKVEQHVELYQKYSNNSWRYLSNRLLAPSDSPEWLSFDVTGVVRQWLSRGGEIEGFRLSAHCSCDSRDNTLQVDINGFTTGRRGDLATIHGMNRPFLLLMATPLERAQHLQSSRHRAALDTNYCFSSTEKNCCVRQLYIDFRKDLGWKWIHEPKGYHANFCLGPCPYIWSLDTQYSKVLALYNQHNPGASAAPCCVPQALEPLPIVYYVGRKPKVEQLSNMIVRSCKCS

B1: integrin αVβ8 headpiece (αV residues 1-594, β8 residues 1-456) (complex)
chain 1: FNLDVDSPAEYSGPEGSYFGFAVDFFVPSASSRMFLLVGAPKANTTQPGIVEGGQVLKCDWSSTRRCQPIEFDATGNRDYAKDDPLEFKSHQWFGASVRSKQDKILACAPLYHWRTEMKQEREPVGTCFLQDGTKTVEYAPCRSQDIDADGQGFCQGGFSIDFTKADRVLLGGPGSFYWQGQLISDQVAEIVSKYDPNVYSIKYNNQLATRTAQAIFDDSYLGYSVAVGDFNGDGIDDFVSGVPRAARTLGMVYIYDGKNMSSLYNFTGEQMAAYFGFSVAATDINGDDYADVFIGAPLFMDRGSDGKLQEVGQVSVSLQRASGDFQTTKLNGFEVFARFGSAIAPLGDLDQDGFNDIAIAAPYGGEDKKGIVYIFNGRSTGLNAVPSQILEGQWAARSGCPPSFGYSMKGATDIDKNGYPDLIVGAFGVDRAILYRARPVITVNAGLEVYPSILNQDNKTCSLPGTALKVSCFNVRFCLKADGKGVLPRKLNFQVELLLDKLKQKGAIRRALFLYSRSPSHSKNMTISRGGLMQCEELIAYLRDESEFRDKLTPITIFMEYRLDYRTAADTTGLQPILNQFTPANISRQAHILLD
chain 2: EDNRCASSNAASCARCLALGPECGWCVQEDFISGGSRSERCDIVSNLISKGCSVDSIEYPSVHVIIPTENEINTQVTPGEVSIQLRPGAEANFMLKVHPLKKYPVDLYYLVDVSASMHNNIEKLNSVGNDLSRKMAFFSRDFRLGFGSYVDKTVSPYISIHPERIHNQCSDYNLDCMPPHGYIHVLSLTENITEFEKAVHRQKISGNIDTPEGGFDAMLQAAVCESHIGWRKEAKRLLLVMTDQTSHLALDSKLAGIVCPNDGNCHLKNNVYVKSTTMEHPSLGQLSEKLIDNNINVIFAVQGKQFHWYKDLLPLLPGTIAGEIESKAANLNNLVVEAYQKLISEVKVQVENQVQGIYFNITAICPDGSRKPGMEGCRNVTSNDEVLFNVTVTMKKCDVTGGKNYAIIKPIGFNETAKIHIHRNCSCQCEDNRGPKGKCVDETFLDSKCFQCDENK
Turning to B1, in assay [1], the koff is 0.00109 s⁻¹.

B2: integrin αVβ6 headpiece (αV residues 1-594, β6 residues 1-474) (complex)
chain 1: FNLDVDSPAEYSGPEGSYFGFAVDFFVPSASSRMFLLVGAPKANTTQPGIVEGGQVLKCDWSSTRRCQPIEFDATGNRDYAKDDPLEFKSHQWFGASVRSKQDKILACAPLYHWRTEMKQEREPVGTCFLQDGTKTVEYAPCRSQDIDADGQGFCQGGFSIDFTKADRVLLGGPGSFYWQGQLISDQVAEIVSKYDPNVYSIKYNNQLATRTAQAIFDDSYLGYSVAVGDFNGDGIDDFVSGVPRAARTLGMVYIYDGKNMSSLYNFTGEQMAAYFGFSVAATDINGDDYADVFIGAPLFMDRGSDGKLQEVGQVSVSLQRASGDFQTTKLNGFEVFARFGSAIAPLGDLDQDGFNDIAIAAPYGGEDKKGIVYIFNGRSTGLNAVPSQILEGQWAARSGCPPSFGYSMKGATDIDKNGYPDLIVGAFGVDRAILYRARPVITVNAGLEVYPSILNQDNKTCSLPGTALKVSCFNVRFCLKADGKGVLPRKLNFQVELLLDKLKQKGAIRRALFLYSRSPSHSKNMTISRGGLMQCEELIAYLRDESEFRDKLTPITIFMEYRLDYRTAADTTGLQPILNQFTPANISRQAHILLD
chain 2: HVQGGCALGGAETCEDCLLIGPQCAWCAQENFTHPSGVGERCDTPANLLAKGCQLNFIENPVSQVEILKNKPLSVGRQKNSSDIVQIAPQSLILKLRPGGAQTLQVHVRQTEDYPVDLYYLMDLSASMDDDLNTIKELGSRLSKEMSKLTSNFRLGFGSFVEKPVSPFVKTTPEEIANPCSSIPYFCLPTFGFKHILPLTNDAERFNEIVKNQKISANIDTPEGGFDAIMQAAVCKEKIGWRNDSLHLLVFVSDADSHFGMDSKLAGIVCPNDGLCHLDSKNEYSMSTVLEYPTIGQLIDKLVQNNVLLIFAVTQEQVHLYENYAKLIPGATVGLLQKDSGNILQLIISAYEELRSEVELEVLGDTEGLNLSFTAICNNGTLFQHQKKCSHMKVGDTASFSVTVNIPHCERRSRHIIIKPVGLGDALELLVSPECNCDCQKEVEVNSSKCHHGNGSFQCGVCACHPGHMGPRCE
In assay [2], B2 returned a dissociation rate constant (koff) of 0.000107 s⁻¹.

B3: integrin αVβ8-6DLL headpiece (the disulfide-linked loop of β8 substituted by that of β6) (complex)
chain 1: FNLDVDSPAEYSGPEGSYFGFAVDFFVPSASSRMFLLVGAPKANTTQPGIVEGGQVLKCDWSSTRRCQPIEFDATGNRDYAKDDPLEFKSHQWFGASVRSKQDKILACAPLYHWRTEMKQEREPVGTCFLQDGTKTVEYAPCRSQDIDADGQGFCQGGFSIDFTKADRVLLGGPGSFYWQGQLISDQVAEIVSKYDPNVYSIKYNNQLATRTAQAIFDDSYLGYSVAVGDFNGDGIDDFVSGVPRAARTLGMVYIYDGKNMSSLYNFTGEQMAAYFGFSVAATDINGDDYADVFIGAPLFMDRGSDGKLQEVGQVSVSLQRASGDFQTTKLNGFEVFARFGSAIAPLGDLDQDGFNDIAIAAPYGGEDKKGIVYIFNGRSTGLNAVPSQILEGQWAARSGCPPSFGYSMKGATDIDKNGYPDLIVGAFGVDRAILYRARPVITVNAGLEVYPSILNQDNKTCSLPGTALKVSCFNVRFCLKADGKGVLPRKLNFQVELLLDKLKQKGAIRRALFLYSRSPSHSKNMTISRGGLMQCEELIAYLRDESEFRDKLTPITIFMEYRLDYRTAADTTGLQPILNQFTPANISRQAHILL
chain 2: EDNRCASSNAASCARCLALGPECGWCVQEDFISGGSRSERCDIVSNLISKGCSVDSIEYPSVHVIIPTENEINTQVTPGEVSIQLRPGAEANFMLKVHPLKKYPVDLYYLVDVSASMHNNIEKLNSVGNDLSRKMAFFSRDFRLGFGSYVDKTVSPYISIHPERIHNQCSSIPYFCMPPHGYIHVLSLTENITEFEKAVHRQKISGNIDTPEGGFDAMLQAAVCESHIGWRKEAKRLLLVMTDQTSHLALDSKLAGIVCPNDGNCHLKNNVYVKSTTMEHPSLGQLSEKLIDNNINVIFAVQGKQFHWYKDLLPLLPGTIAGEIESKAANLNNLVVEAYQKLISEVKVQVENQVQGIYFNITAICPDGSRKPGMEGCRNVTSNDEVLFNVTVTMKKCDVTGGKNYAIIKPIGFNETAKIHIHRNCSCQCEDNRGPKGKCVDETFLDSKCFQCDENK
In the case of B3, the koff in assay [2] worked out at 0.000142 s⁻¹.

B4: αVβ8-IgG1 Fc (heterotetramer of αVβ8 linked by the IgG1 Fc fragment on the C-terminus of β8) (Fc fusion)
chain 1: FNLDVDSPAEYSGPEGSYFGFAVDFFVPSASSRMFLLVGAPKANTTQPGIVEGGQVLKCDWSSTRRCQPIEFDATGNRDYAKDDPLEFKSHQWFGASVRSKQDKILACAPLYHWRTEMKQEREPVGTCFLQDGTKTVEYAPCRSQDIDADGQGFCQGGFSIDFTKADRVLLGGPGSFYWQGQLISDQVAEIVSKYDPNVYSIKYNNQLATRTAQAIFDDSYLGYSVAVGDFNGDGIDDFVSGVPRAARTLGMVYIYDGKNMSSLYNFTGEQMAAYFGFSVAATDINGDDYADVFIGAPLFMDRGSDGKLQEVGQVSVSLQRASGDFQTTKLNGFEVFARFGSAIAPLGDLDQDGFNDIAIAAPYGGEDKKGIVYIFNGRSTGLNAVPSQILEGQWAARSGCPPSFGYSMKGATDIDKNGYPDLIVGAFGVDRAILYRARPVITVNAGLEVYPSILNQDNKTCSLPGTALKVSCFNVRFCLKADGKGVLPRKLNFQVELLLDKLKQKGAIRRALFLYSRSPSHSKNMTISRGGLMQCEELIAYLRDESEFRDKLTPITIFMEYRLDYRTAADTTGLQPILNQFTPANISRQAHILL
chain 2: EDNRCASSNAASCARCLALGPECGWCVQEDFISGGSRSERCDIVSNLISKGCSVDSIEYPSVHVIIPTENEINTQVTPGEVSIQLRPGAEANFMLKVHPLKKYPVDLYYLVDVSASMHNNIEKLNSVGNDLSRKMAFFSRDFRLGFGSYVDKTVSPYISIHPERIHNQCSDYNLDCMPPHGYIHVLSLTENITEFEKAVHRQKISGNIDTPEGGFDAMLQAAVCESHIGWRKEAKRLLLVMTDQTSHLALDSKLAGIVCPNDGNCHLKNNVYVKSTTMEHPSLGQLSEKLIDNNINVIFAVQGKQFHWYKDLLPLLPGTIAGEIESKAANLNNLVVEAYQKLISEVKVQVENQVQGIYFNITAICPDGSRKPGMEGCRNVTSNDEVLFNVTVTMKKCDVTGGKNYAIIKPIGFNETAKIHIHRNCSCQCEDNRGPKGKCVDETFLDSKCFQCDENK
With B4, in assay [1], the koff turned out to be 7.6e-05 s⁻¹.

B5: integrin αVβ6-8DLL headpiece (the disulfide-linked loop of β6 substituted by that of β8) (complex)
chain 1: FNLDVDSPAEYSGPEGSYFGFAVDFFVPSASSRMFLLVGAPKANTTQPGIVEGGQVLKCDWSSTRRCQPIEFDATGNRDYAKDDPLEFKSHQWFGASVRSKQDKILACAPLYHWRTEMKQEREPVGTCFLQDGTKTVEYAPCRSQDIDADGQGFCQGGFSIDFTKADRVLLGGPGSFYWQGQLISDQVAEIVSKYDPNVYSIKYNNQLATRTAQAIFDDSYLGYSVAVGDFNGDGIDDFVSGVPRAARTLGMVYIYDGKNMSSLYNFTGEQMAAYFGFSVAATDINGDDYADVFIGAPLFMDRGSDGKLQEVGQVSVSLQRASGDFQTTKLNGFEVFARFGSAIAPLGDLDQDGFNDIAIAAPYGGEDKKGIVYIFNGRSTGLNAVPSQILEGQWAARSGCPPSFGYSMKGATDIDKNGYPDLIVGAFGVDRAILYRARPVITVNAGLEVYPSILNQDNKTCSLPGTALKVSCFNVRFCLKADGKGVLPRKLNFQVELLLDKLKQKGAIRRALFLYSRSPSHSKNMTISRGGLMQCEELIAYLRDESEFRDKLTPITIFMEYRLDYRTAADTTGLQPILNQFTPANISRQAHILLD
chain 2: HVQGGCALGGAETCEDCLLIGPQCAWCAQENFTHPSGVGERCDTPANLLAKGCQLNFIENPVSQVEILKNKPLSVGRQKNSSDIVQIAPQSLILKLRPGGAQTLQVHVRQTEDYPVDLYYLMDLSASMDDDLNTIKELGSRLSKEMSKLTSNFRLGFGSFVEKPVSPFVKTTPEEIANPCSDYNLDCLPTFGFKHILPLTNDAERFNEIVKNQKISANIDTPEGGFDAIMQAAVCKEKIGWRNDSLHLLVFVSDADSHFGMDSKLAGIVCPNDGLCHLDSKNEYSMSTVLEYPTIGQLIDKLVQNNVLLIFAVTQEQVHLYENYAKLIPGATVGLLQKDSGNILQLIISAYEELRSEVELEVLGDTEGLNLSFTAICNNGTLFQHQKKCSHMKVGDTASFSVTVNIPHCERRSRHIIIKPVGLGDALELLVSPECNCDCQKEVEVNSSKCHHGNGSFQCGVCACHPGHMGPRCE
Molecule B5 came in with a koff in assay [2] of 0.00121 s⁻¹.
